Molecular target: HLA-A*02:01 (Homo sapiens, UniProt P04439, D140Y/D185E/D98H/E176V/E277Q/G131W/G231S/I119V/I121R/I166T/I218V/L300P/L318F/N151K/N90K/P208A/P217A/Q86G/Q94H/R138H/R169H/T345S)
Test: MHC binding assay: UV-ligand exchange with β2m ELISA (peptide exchange yield)
Settings: MHC class I binding score; binding to HLA-A*02:01 ranged by peptide exchange yield (UV-ligand exchange, β2m ELISA)
From the text: Candidate peptides for T cell based therapies according to the present invention were further tested for their MHC binding capacity (affinity). The individual peptide-MHC complexes were produced by UV-ligand exchange, where a UV-sensitive peptide is cleaved upon UV-irradiation, and exchanged with the peptide of interest as analyzed. Only peptide candidates that can effectively bind and stabilize the peptide-receptive MHC molecules prevent dissociation of the MHC complexes. To determine the yield of the exchange reaction, an ELISA was performed based on the detection of the light chain (β2m) of stabilized MHC complexes. The assay was performed as generally described in Rodenko et al. (Rodenko et al., 2006).
96 well MAXISorp plates (NUNC) were coated over night with 2 ug/ml streptavidin in PBS at room temperature, washed 4× and blocked for 1 h at 37° C. in 2% BSA containing blocking buffer. Refolded HLA-A*02:01/MLA-001 monomers served as standards, covering the range of 15-500 ng/ml. Peptide-MHC monomers of the UV-exchange reaction were diluted 100 fold in blocking buffer. Samples were incubated for 1 h at 37° C., washed four times, incubated with 2 ug/ml HRP conjugated anti-β2m for 1 h at 37° C., washed again and detected with TMB solution that is stopped with […]. Absorption was measured at 450 nm. Candidate peptides that show a high exchange yield (preferably higher than 50%, most preferred higher than 75%) are generally preferred for a generation and production of antibodies or fragments thereof, and/or T cell receptors or fragments thereof, as they show sufficient avidity to the MHC molecules and prevent dissociation of the MHC complexes.

Substance	Peptide Exchange
157 (SLNIRDFTM; listed as Homo sapiens) [compound 157]	″+++″ (≥50 = +++)
158 (SLPEAPLDV; listed as Homo sapiens) [compound 158]	″+++″ (≥50 = +++)
159 (SLQEEKLIYV; listed as Homo sapiens) [compound 159]	″+++″ (≥50 = +++)
160 (SLSFLVPSL; listed as Homo sapiens) [compound 160]	″+++″ (≥50 = +++)
161 (SMDDGMINV; listed as Homo sapiens) [compound 161]	″+++″ (≥50 = +++)
162 (SMKDDLENV; listed as Homo sapiens) [compound 162]	″++″ (≥20% = ++)
163 (SQLDISEPYKV; listed as Homo sapiens) [compound 163]	″+++″ (≥50 = +++)
164 (SVHKGFAFV; listed as Homo sapiens) [compound 164]	″+++″ (≥50 = +++)
165 (TLDDDLDTV; listed as Homo sapiens) [compound 165]	″++″ (≥20% = ++)
166 (TLDPNQVSL; listed as Homo sapiens) [compound 166]	″++″ (≥20% = ++)
167 (TLDTSKLYV; listed as Homo sapiens) [compound 167]	″+++″ (≥50 = +++)
168 (YLLDQSFVM; listed as Homo sapiens) [compound 168]	″++++″ (≥75% = ++++)
169 (TLLLGLTEV; listed as Homo sapiens) [compound 169]	″+++″ (≥50 = +++)
170 (TLTFRVETV; listed as Homo sapiens) [compound 170]	″+++″ (≥50 = +++)
171 (TLVPPAALISI; listed as Homo sapiens) [compound 171]	″+++″ (≥50 = +++)
172 (TLYDMLASI; listed as Homo sapiens) [compound 172]	″+++″ (≥50 = +++)
173 (TVIENIHTI; listed as Homo sapiens) [compound 173]	″++″ (≥20% = ++)
174 (VLAELPIIVV; listed as Homo sapiens) [compound 174]	″+++″ (≥50 = +++)
175 (FTVPRVVAV; listed as Homo sapiens) [compound 175]	″+++″ (≥50 = +++)
176 (VLAEQNIIPSA; listed as Homo sapiens) [compound 176]	″+++″ (≥50 = +++)
177 (VLDDRELLL; listed as Homo sapiens) [compound 177]	″+++″ (≥50 = +++)
178 (VLFFNVQEV; listed as Homo sapiens) [compound 178]	″+++″ (≥50 = +++)
179 (VLLGLEMTL; listed as Homo sapiens) [compound 179]	″+++″ (≥50 = +++)
180 (LLKDGPEIGL; listed as Homo sapiens) [compound 180]	″++″ (≥20% = ++)
181 (VLLSIPFVSV; listed as Homo sapiens) [compound 181]	″+++″ (≥50 = +++)
182 (VLLSVPGPPV; listed as Homo sapiens) [compound 182]	″+++″ (≥50 = +++)
183 (VLMPTVYQQGV; listed as Homo sapiens) [compound 183]	″+++″ (≥50 = +++)
184 (VLSHNLYTV; listed as Homo sapiens) [compound 184]	″+++″ (≥50 = +++)
185 (VMDDQRDLI; listed as Homo sapiens) [compound 185]	″++″ (≥20% = ++)
186 (VMDPTKILI; listed as Homo sapiens) [compound 186]	″++++″ (≥75% = ++++)

Other lines, results leading:

Peptide Exchange	Substance
″++++″ (≥75% = ++++)	187 (VMDTHLVNI; listed as Homo sapiens) [compound 187]
″++″ (≥20% = ++)	188 (VMGDIPAAV; listed as Homo sapiens) [compound 188]
″+++″ (≥50 = +++)	189 (VMLEMTPEL; listed as Homo sapiens) [compound 189]
″+++″ (≥50 = +++)	190 (VVMGTVPRL; listed as Homo sapiens) [compound 190]
″+++″ (≥50 = +++)	191 (YIFDGSDGGV; listed as Homo sapiens) [compound 191]
″+++″ (≥50 = +++)	193 (YLDLSNNRL; listed as Homo sapiens) [compound 193]
″++++″ (≥75% = ++++)	194 (YLDNVLAEL; listed as Homo sapiens) [compound 194]
″++++″ (≥75% = ++++)	195 (YLGGFALSV; listed as Homo sapiens) [compound 195]
″+″ (≥10% = +)	196 (YLLLQTYVL; listed as Homo sapiens) [compound 196]
″+++″ (≥50 = +++)	198 (YLTFLPAEV; listed as Homo sapiens) [compound 198]
″++++″ (≥75% = ++++)	199 (YLVELSSLL; listed as Homo sapiens) [compound 199]
″+++″ (≥50 = +++)	203 (ALLSSQLAL; listed as Homo sapiens) [compound 203]
″+++″ (≥50 = +++)	204 (GLLQINDKIAL; listed as Homo sapiens) [compound 204]
″+++″ (≥50 = +++)	205 (GLSQANFTL; listed as Homo sapiens) [compound 205]
″+++″ (≥50 = +++)	206 (HMQDVRVLL; listed as Homo sapiens) [compound 206]
″+++″ (≥50 = +++)	207 (IIADLDTTIMFA; listed as Homo sapiens) [compound 207]
″+++″ (≥50 = +++)	208 (ILLKTEGINL; listed as Homo sapiens) [compound 208]
″+++″ (≥50 = +++)	209 (ILQAELPSL; listed as Homo sapiens) [compound 209]
″+++″ (≥50 = +++)	210 (KLLVQDFFL; listed as Homo sapiens) [compound 210]
″+++″ (≥50 = +++)	211 (LIDVKPLGV; listed as Homo sapiens) [compound 211]
″+++″ (≥50 = +++)	214 (RLQELTEKL; listed as Homo sapiens) [compound 214]

Peptide Exchange	Substance
″+++″ (≥50 = +++)	215 (VMQDIVYKL; listed as Homo sapiens) [compound 215]
″+++″ (≥50 = +++)	216 (WLAGDVPAA; listed as Homo sapiens) [compound 216]
″+++″ (≥50 = +++)	217 (ALDEPPYLTV; listed as Homo sapiens) [compound 217]
″++″ (≥20% = ++)	218 (ALGEEWKGYVV; listed as Homo sapiens) [compound 218]
″+++″ (≥50 = +++)	219 (ALLNLLESA; listed as Homo sapiens) [compound 219]
″+″ (≥10% = +)	221 (ALVSTIIMV; listed as Homo sapiens) [compound 221]
″+++″ (≥50 = +++)	222 (ALWELSLKI; listed as Homo sapiens) [compound 222]
″+++″ (≥50 = +++)	223 (ALWVSQPPEI; listed as Homo sapiens) [compound 223]
″+++″ (≥50 = +++)	224 (AMEALVVEV; listed as Homo sapiens) [compound 224]
″+++″ (≥50 = +++)	225 (ILQERELLPV; listed as Homo sapiens) [compound 225]
″+++″ (≥50 = +++)	226 (AMNISVPQV; listed as Homo sapiens) [compound 226]
″+++″ (≥50 = +++)	227 (FLAEASVMTQL; listed as Homo sapiens) [compound 227]
″+++″ (≥50 = +++)	228 (FLGGLSPGV; listed as Homo sapiens) [compound 228]
″++++″ (≥75% = ++++)	229 (FLLNLQNCHL; listed as Homo sapiens) [compound 229]
″+++″ (≥50 = +++)	230 (FLQDSKVIFV; listed as Homo sapiens) [compound 230]
″+++″ (≥50 = +++)	231 (FLYIRQLAI; listed as Homo sapiens) [compound 231]
″++++″ (≥75% = ++++)	232 (FMHQIIDQV; listed as Homo sapiens) [compound 232]
″++″ (≥20% = ++)	233 (GIIDINVRL; listed as Homo sapiens) [compound 233]
″++″ (≥20% = ++)	234 (GLDDAEYAL; listed as Homo sapiens) [compound 234]
″+++″ (≥50 = +++)	235 (GLDDLLLFL; listed as Homo sapiens) [compound 235]

From patent publication US10117916B2, “Peptides and combination of peptides for use in immunotherapy against CLL and other cancers” (immatics biotechnologies GmbH, priority 2015, dated 2018)
